Values of other authors as cited in paper PMC8141935.

Target: GABAA receptor α3 subunit intracellular loop (UniProt P34903)
Sequence (P34903 361-457): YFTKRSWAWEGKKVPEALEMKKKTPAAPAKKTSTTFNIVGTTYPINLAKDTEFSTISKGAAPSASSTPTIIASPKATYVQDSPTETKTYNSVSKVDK

gephyrin, sequence (Q9NQX3 whole entry): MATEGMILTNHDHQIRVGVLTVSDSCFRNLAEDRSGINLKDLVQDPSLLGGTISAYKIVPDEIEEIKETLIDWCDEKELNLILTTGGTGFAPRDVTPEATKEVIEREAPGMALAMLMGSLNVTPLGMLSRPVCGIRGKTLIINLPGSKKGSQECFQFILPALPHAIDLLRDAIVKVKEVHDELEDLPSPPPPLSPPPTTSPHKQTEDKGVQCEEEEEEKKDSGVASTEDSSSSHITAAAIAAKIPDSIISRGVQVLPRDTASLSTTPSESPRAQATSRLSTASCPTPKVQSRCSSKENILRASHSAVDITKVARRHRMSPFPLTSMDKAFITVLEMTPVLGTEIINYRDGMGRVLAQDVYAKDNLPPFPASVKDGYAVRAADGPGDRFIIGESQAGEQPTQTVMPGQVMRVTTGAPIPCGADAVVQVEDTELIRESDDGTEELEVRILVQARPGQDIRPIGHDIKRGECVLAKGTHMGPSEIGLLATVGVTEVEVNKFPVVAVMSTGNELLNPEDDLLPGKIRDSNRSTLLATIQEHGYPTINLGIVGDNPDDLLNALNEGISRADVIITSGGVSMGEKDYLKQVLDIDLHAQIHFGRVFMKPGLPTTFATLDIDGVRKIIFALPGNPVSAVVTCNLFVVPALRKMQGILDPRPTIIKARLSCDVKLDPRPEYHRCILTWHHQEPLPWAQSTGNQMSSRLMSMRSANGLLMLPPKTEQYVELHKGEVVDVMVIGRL

gephyrin (from UniProt Q9NQX3)
Kd: 5.3 µM
